According to PMC4218836, “Generation of a Single Chain Antibody Variable Fragment (scFv) to Sense Selectively RhoB Activation” (PLoS ONE, 2014):

How the values were obtained:
GST-RhoCL63 = GST-RhoCL63 (Homo sapiens (species assumed), UniProt P08134, L63)
GST-RhoAL63 = GST-RhoAL63 (Homo sapiens (species assumed), UniProt P61586, L63)
GST-RhoBL63 [1] = target: T1, GST-RhoBL63 (Homo sapiens (species assumed), UniProt P62745, L63)
endogenous RhoA = target: T2, endogenous RhoA (human (endogenous in HeLa), UniProt P61586); test: pull-down; CBD-pulldown: scFv-bound chitin beads (0,5-1 µg) with HeLa cell extracts loaded with GTPγS (100 µM), 45 min at 4°C; Western blot with anti-RhoA, anti-RhoB, anti-RhoC; GDP-loaded extracts beside it; details: one partner purified
T2 construct: RhoA, endogenous in HeLa S3 cells; source: endogenous, HeLa cell extract

endogenous RhoB = target: T3, endogenous RhoB (human (endogenous in HeLa), UniProt P62745); test: as above; details: one partner purified
T3 construct: RhoB, endogenous in HeLa S3 cells; source: endogenous, HeLa cell extract

endogenous RhoC = target: T4, endogenous RhoC (Homo sapiens (HeLa S3), UniProt P08134); test: as above; details: one partner purified
T4 construct: RhoC, endogenous in HeLa S3 cells; source: endogenous, HeLa cell extract

[2] = target: T5, recombinant wild type GST-RhoB (Homo sapiens (species assumed), UniProt P62745); test: ELISA; purified scFvs on wild type GST-Rho loaded with GTPγS (from crude bacterial extracts) and captured on glutathione coated plates; GDP-loaded GST-Rho beside it; details: one partner purified
T5 construct: RhoB wild type, loaded with GDP or GTPγS; also called RhoBwt; GST-RhoBwt; source: E. coli BL21, crude bacterial extract, nucleotide-loaded

GST-RhoBL63 [3] = target: T1, GST-RhoBL63; test: SPR; BIAcore T200; GST fusion Rho captured (about 1000 RU) by anti-GST antibody on CM5 chip, scFvs injected 6.25-100 nM, single-cycle kinetics, HBS-P pH 7.4, 25°C, GST alone as reference channel, 1:1 Langmuir model; details: both partners purified
6xHis-RhoAL63 = target: T6, 6xHis-RhoAL63 (Homo sapiens (species assumed), UniProt P61586, L63); test: ELISA; competitive ELISA (method of Friguet): purified scFvs (10^-9-10^-8 M) incubated until equilibrium (30 min, 23-25°C) with a range of concentrations of soluble 6xHis-RhoL63, free scFv then quantified on GST-Rho-coated plates with anti-c-myc-HRP; nonlinear regression; details: both partners purified
T6 construct: RhoA, mutant L63, cDNA in the pHIS parallel2 vector; also called 6his-RhoL63; source: E. coli BL21, purified (Ni-NTA, native condition); not shown: 6xHis, N-terminal, kept

6xHis-RhoBL63 = target: T7, 6xHis-RhoBL63 (Homo sapiens (species assumed), UniProt P62745, L63); test: as above; details: both partners purified
T7 construct: RhoB, mutant L63, cDNA in the pHIS parallel2 vector; also called 6his-RhoL63; source: E. coli BL21, purified (Ni-NTA, native condition); not shown: 6xHis, N-terminal, kept

[4] = target: T8, recombinant wild type GST-RhoA (Homo sapiens (species assumed), UniProt P61586); test: ELISA; purified scFvs on wild type GST-Rho loaded with GTPγS (from crude bacterial extracts) and captured on glutathione coated plates; GDP-loaded GST-Rho beside it; details: one partner purified
T8 construct: RhoA wild type, loaded with GDP or GTPγS; also called RhoAwt; RhoA-GTPγS; source: E. coli BL21, crude bacterial extract, nucleotide-loaded
T8 sequence (P61586 whole entry): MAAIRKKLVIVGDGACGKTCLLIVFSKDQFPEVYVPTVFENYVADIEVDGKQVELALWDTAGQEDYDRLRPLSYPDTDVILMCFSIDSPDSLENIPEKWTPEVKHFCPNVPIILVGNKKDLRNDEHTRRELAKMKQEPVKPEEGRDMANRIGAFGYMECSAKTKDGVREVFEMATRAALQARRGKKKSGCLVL

T5 sequence (P62745 whole entry): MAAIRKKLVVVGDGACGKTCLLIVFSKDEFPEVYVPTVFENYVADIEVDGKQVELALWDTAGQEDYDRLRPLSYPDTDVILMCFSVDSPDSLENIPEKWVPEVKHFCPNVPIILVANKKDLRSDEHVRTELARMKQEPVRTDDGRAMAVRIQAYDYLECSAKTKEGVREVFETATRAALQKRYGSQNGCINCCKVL
T6 sequence (P61586 other isoform, or with tags, fused parts or gaps L63 | L63): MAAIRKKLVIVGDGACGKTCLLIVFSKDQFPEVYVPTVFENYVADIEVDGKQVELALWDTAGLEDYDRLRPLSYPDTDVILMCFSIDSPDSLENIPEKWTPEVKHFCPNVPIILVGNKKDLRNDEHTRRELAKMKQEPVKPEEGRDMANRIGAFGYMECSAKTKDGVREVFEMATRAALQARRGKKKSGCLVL
T2 sequence (P61586 whole entry): as the sequence (P61586 whole entry) above
T7 sequence (P62745 other isoform, or with tags, fused parts or gaps L63 | L63): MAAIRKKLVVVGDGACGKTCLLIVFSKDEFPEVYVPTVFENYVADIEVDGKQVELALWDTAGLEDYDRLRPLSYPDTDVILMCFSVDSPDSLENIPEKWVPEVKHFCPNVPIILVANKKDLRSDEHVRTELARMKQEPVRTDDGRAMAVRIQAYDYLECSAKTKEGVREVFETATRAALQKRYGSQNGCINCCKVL
T1 sequence (P62745 other isoform, or with tags, fused parts or gaps L63 | L63): as above
T3 sequence (P62745 whole entry): as the sequence (P62745 whole entry) above
T4 sequence (P08134 whole entry): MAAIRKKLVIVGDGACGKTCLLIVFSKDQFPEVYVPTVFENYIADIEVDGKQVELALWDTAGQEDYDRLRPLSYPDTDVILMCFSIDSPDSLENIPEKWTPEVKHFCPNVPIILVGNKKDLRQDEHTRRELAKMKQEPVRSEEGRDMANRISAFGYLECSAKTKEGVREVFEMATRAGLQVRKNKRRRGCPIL
GST-RhoCL63, sequence (P08134 other isoform, or with tags, fused parts or gaps L63 | L63): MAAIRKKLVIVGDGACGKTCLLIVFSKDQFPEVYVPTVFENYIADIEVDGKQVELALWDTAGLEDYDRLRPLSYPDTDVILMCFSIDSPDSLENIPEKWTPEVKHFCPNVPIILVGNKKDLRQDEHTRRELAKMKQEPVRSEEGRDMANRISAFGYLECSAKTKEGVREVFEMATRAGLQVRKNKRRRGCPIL
GST-RhoAL63, sequence (P61586 other isoform, or with tags, fused parts or gaps L63 | L63): as the sequence (P61586 other isoform, or with tags, fused parts or gaps L63 | L63) above

B1: C1 (scFvC1) (antibody, V domains shown)
VH: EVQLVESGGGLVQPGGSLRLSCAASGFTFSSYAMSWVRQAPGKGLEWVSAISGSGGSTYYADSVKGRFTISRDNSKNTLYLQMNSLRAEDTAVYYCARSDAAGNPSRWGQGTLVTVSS
VL: SSELTQDPAVSVALGQTVRITCQGDSLRSYYASWYQQKPGQAPVLVIYGKNNRPSGIPDRFSGSSSGNTASLTITGAQAEDEADYYCNSRDSSGNHAYVFGGGTKLTVL
- binding result (GST-RhoCL63): binds
- binding result (GST-RhoAL63): binds
- binding result (GST-RhoBL63 [1]): binds

B2: scFvF7-NP3-CBD (scFvF7 in fusion with the Chitin Binding Domain, on chitin beads) (scFv, V domains shown)
VH: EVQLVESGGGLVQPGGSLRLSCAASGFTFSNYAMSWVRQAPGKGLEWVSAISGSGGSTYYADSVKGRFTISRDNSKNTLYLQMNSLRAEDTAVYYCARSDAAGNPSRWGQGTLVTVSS
VL: SSELTQDPAVSVALGQTVRITCQGDSLRSYYASWYQQKPGQAPVLVIYGKNNRPSGIPDRFSGSSSGNTASLTITGAQAEDEADYYCNTRDSSGNHAYVFGGGTKLTVL
notes: as the scFv of m1; Order scFv, NP3, CBD from the plasmid pHEN-scFv-NCBD; not shown: NP3 (N-terminal domain of the phage P3 protein), C-terminal, kept
- binding result (endogenous RhoA): binds
- binding result (endogenous RhoB): binds
- binding result (endogenous RhoC): binds

B3: scFvE3 (soluble, in fusion with the N-terminal domain of the phage P3 protein) (scFv, V domains shown)
VH: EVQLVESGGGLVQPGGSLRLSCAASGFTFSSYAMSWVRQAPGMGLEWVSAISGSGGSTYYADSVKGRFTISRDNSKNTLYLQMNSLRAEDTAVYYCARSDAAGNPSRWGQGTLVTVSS
VL: SSELTQDPAVSVALGQTVRITCQGDSLRSYYTSWYQQKPGQAPVRVIYGKNNRPSGVPDRFSGSSSGNTASLTITGAQAEDEADYYCNSRDSSGNHAYVFGGGTKLTVL
notes: evolved variant of scFvC1 with 4 substitutions located within the scaffold, without D100N; Isolated by subtractive panning (GST-RhoAL63 counter-selection, GST-RhoBL63 selection); also called clone E3; source: E. coli XL1 blue, periplasmic fraction, purified (Ni-NTA); not shown: NP3 (N-terminal domain of the phage P3 protein), C-terminal, kept
- binding result [2]: binds
- fold higher affinity than for GST-RhoAL63 (GST-RhoBL63 [3]): 10 fold
- Kd (6xHis-RhoAL63): 22.9 nM
- Kd (6xHis-RhoBL63): 3.63 nM

B4: scFvD10-NP3-CBD (scFvD10 in fusion with the Chitin Binding Domain, on chitin beads) (scFv, V domains shown)
VH: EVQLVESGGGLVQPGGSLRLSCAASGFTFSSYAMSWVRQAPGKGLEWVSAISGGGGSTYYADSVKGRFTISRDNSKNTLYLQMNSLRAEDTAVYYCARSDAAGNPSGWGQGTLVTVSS
VL: SSELTQDPAVSVALGQTVRITCQGDSLRSYYASWYQQKPGQAPVLVIYGKNNRPSGIPDRFSGSSSGNTASLTITGAQAEDEADYYCNSRDSSGNHAYVFGGGTKLTVL
notes: as the scFv of m2; Order scFv, NP3, CBD from the plasmid pHEN-scFv-NCBD; not shown: NP3 (N-terminal domain of the phage P3 protein), C-terminal, kept
- binding result (endogenous RhoA): binds
- binding result (endogenous RhoC): binds

B5: scFvF7 (soluble, in fusion with the N-terminal domain of the phage P3 protein) (scFv, V domains shown)
VH: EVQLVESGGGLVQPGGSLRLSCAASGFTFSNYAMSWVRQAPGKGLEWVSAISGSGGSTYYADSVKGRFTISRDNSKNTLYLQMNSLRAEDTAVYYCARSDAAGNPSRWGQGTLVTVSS
VL: SSELTQDPAVSVALGQTVRITCQGDSLRSYYASWYQQKPGQAPVLVIYGKNNRPSGIPDRFSGSSSGNTASLTITGAQAEDEADYYCNTRDSSGNHAYVFGGGTKLTVL
notes: evolved variant of scFvC1 (VH, linker, VL); also called clone F7; source: E. coli XL1 blue, periplasmic fraction, purified (Ni-NTA); not shown: NP3 (N-terminal domain of the phage P3 protein), C-terminal, kept
- binding result [4]: binds
- binding result [2]: binds
- Kd (6xHis-RhoAL63): 2.33 nM
- Kd (6xHis-RhoBL63): 4.94 nM

B6: scFvD10 (soluble, in fusion with the N-terminal domain of the phage P3 protein) (scFv, V domains shown)
VH: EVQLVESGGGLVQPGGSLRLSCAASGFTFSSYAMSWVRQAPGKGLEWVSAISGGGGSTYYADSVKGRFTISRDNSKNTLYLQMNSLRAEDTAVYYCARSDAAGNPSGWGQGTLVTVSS
VL: SSELTQDPAVSVALGQTVRITCQGDSLRSYYASWYQQKPGQAPVLVIYGKNNRPSGIPDRFSGSSSGNTASLTITGAQAEDEADYYCNSRDSSGNHAYVFGGGTKLTVL
notes: evolved variant of scFvC1 (VH, linker, VL); also called clone D10; source: E. coli XL1 blue, periplasmic fraction, purified (Ni-NTA); not shown: NP3 (N-terminal domain of the phage P3 protein), C-terminal, kept
- binding result [4]: binds
- binding result [2]: no binding
- Kd (6xHis-RhoAL63): 3.38 nM

B7: scFvE3-NP3-CBD (scFvE3 in fusion with the Chitin Binding Domain, on chitin beads) (scFv, V domains shown)
VH: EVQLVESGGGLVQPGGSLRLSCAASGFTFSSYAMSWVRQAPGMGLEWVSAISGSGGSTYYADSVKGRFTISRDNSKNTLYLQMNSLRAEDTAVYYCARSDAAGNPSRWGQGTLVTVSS
VL: SSELTQDPAVSVALGQTVRITCQGDSLRSYYTSWYQQKPGQAPVRVIYGKNNRPSGVPDRFSGSSSGNTASLTITGAQAEDEADYYCNSRDSSGNHAYVFGGGTKLTVL
notes: as the scFv of m3; Order scFv, NP3, CBD from the plasmid pHEN-scFv-NCBD; not shown: NP3 (N-terminal domain of the phage P3 protein), C-terminal, kept
- binding result (endogenous RhoB): binds
